This is an account of results in US11718646B2, “Bovine adrenal medulla peptide 8-22 compounds and methods of use thereof for treating pain” (Tufts Medical Center, priority 2015, dated 2023).

No end group written: not given here.

In one experiment the target is T1, wild type MrgprX1 (Homo sapiens, UniProt Q96LB2).
T1 construct: expressed in transfected cells; host or cells: HEK293
As to the kind of experiment: SRE-luciferase reporter gene assay in transfected HEK293 cells, wild type receptor. It is filed as cell-based. The procedure:
A luciferase reporter-based assay was utilized as an index of receptor-mediated signaling (as in Doyle et al., 2013). Human kidney cells (HEK293), grown in Dulbecco's modified Eagle's medium (DMEM) containing 10% FBS, 100 U/ml penicillin, and 100 μg/ml streptomycin were seeded in 96-well plates and grown to 80% confluence. Using polyethylenimine (PEI, 2.0 μg/mL in serum-free DMEM), cells were transiently transfected with cDNAs encoding (a) wild type or variant MrgprX1 (3 ng/well); (b) an SRE-luciferase PEST construct (SRE5×-Luc-PEST), which includes five SRE repeats, a luciferase reporter gene, and the protein degradation sequence hPEST (Promega, catalog #E1340) (25 ng/well); and (c) a CMV-β-galactosidase construct as a control for variability in transfection efficiency (10 ng/well). In experiments that included transfection of an MTL-encoding construct, the corresponding cDNA was added to the transfection mix, at 4 ng/well or as indicated.
(§1) Twenty-four hours following transfection, cells were stimulated with soluble ligand for 4 hours (if applicable). After addition of SteadyLite reagent (PerkinElmer, Chicago, Ill.), luciferase activity of the lysate was measured using a TopCount NTX plate reader. Subsequently, 2-nitrophenyl β-D-galactopyranoside (ONPG) was added as a colorimetric substrate to enable quantification of β-galactosidase levels. After incubation with ONPG for 30 minutes, absorbance at 420 nm was measured using a SpectraMax microplate reader (Molecular Devices). Luciferase activity was normalized using the β-galactosidase activity data. Three independent experiments were performed, each with three technical replicates. Data were graphed and statistically analyzed using Graphpad Prism software.
GraphPad Prism software version 6.0 (GraphPad Software Inc., La Jolla, Calif.) was used for sigmoidal curve fitting of ligand concentration—response curves, linear regression, and statistical analysis. EC50 and pEC50 values were calculated for each independent experiment as an index of ligand potency. Reported values represent the mean of three independent experiments. Statistical comparisons were made by one-way analysis of variance with Dunnett's multiple comparisons test.
As additional tools for structure-function studies, MTLs incorporating one of two endogenous peptide ligands for MrgprX1, BAMS-22 and γ2-MSH, were generated. The activities of MTL constructs in both orientations (type I, with an extracellular N terminus of the ligand; type II, with an extracellular C terminus) were assessed using a luciferase-based reporter assay as described herein. […] Luciferase activity was quantified and normalized relative to β-galactosidase expression. […]
Background: Reporter assays use an easily measured gene product as a stand-in for the process of interest.

The next experiment deals with T2, MrgprX1 R131S variant (Homo sapiens, UniProt Q96LB2, R131S).
T2 construct: expressed in transfected cells; host or cells: HEK293
As to the kind of experiment: SRE-luciferase reporter gene assay in transfected HEK293 cells, R131S variant. The experiment is classed as cell-based. The protocol: (§2) A luciferase reporter-based assay was utilized as an index of receptor-mediated signaling (as in Doyle et al., 2013). Human kidney cells (HEK293), grown in Dulbecco's modified Eagle's medium (DMEM) containing 10% FBS, 100 U/ml penicillin, and 100 μg/ml streptomycin were seeded in 96-well plates and grown to 80% confluence. […]
as §1, with “Luciferase activity was normalized using the β-galactosidase activity data. Three independent experiments were performed, each with three technical replicates.” left out
(§3) GraphPad Prism software version 6.0 (GraphPad Software Inc., La Jolla, Calif.) was used for sigmoidal curve fitting of ligand concentration—response curves, linear regression, and statistical analysis. EC50 and pEC50 values were calculated for each independent experiment as an index of ligand potency. […]
Signaling of MrgprX1 following stimulation with the endogenous peptide ligand BAM8-22 was measured using a luciferase reporter assay as described herein. […]

In experiment [1] the test system is spinal nerve ligation neuropathic pain. The note with it: intrathecal; rats; cited from earlier work.
The target in the next experiment is T3, MrgprX1 F273L variant (Homo sapiens, UniProt Q96LB2, F273L).
T3 construct: expressed in transfected cells; host or cells: HEK293
Description: SRE-luciferase reporter gene assay in transfected HEK293 cells, F273L variant. The note with it: significant only with tethered γ2-MSH. The experiment is classed as cell-based. The protocol:
as §2
as §1, with “Luciferase activity was normalized using the β-galactosidase activity data. Three independent experiments were performed, each with three technical replicates.” left out
as §3
(§4) The activity of tethered and lipidated BAMS-22 at each of the seven MrgprX1 variants was assessed (FIGS. 4A-4B). […]

The target of the next experiment is T4, MrgprX1 H133R variant (Homo sapiens, UniProt Q96LB2, H133R).
T4 construct: expressed in transfected cells; host or cells: HEK293
As to the kind of experiment: SRE-luciferase reporter gene assay in transfected HEK293 cells, H133R variant. The experiment is classed as cell-based. The protocol:
as §2
as §1, with “Luciferase activity was normalized using the β-galactosidase activity data. Three independent experiments were performed, each with three technical replicates.” left out
as §3, §4

The next experiment deals with T5, MrgprX1 R55L variant (Homo sapiens, UniProt Q96LB2, R55L).
T5 construct: expressed in transfected cells; host or cells: HEK293
As to the kind of experiment: SRE-luciferase reporter gene assay in transfected HEK293 cells, R55L variant. The experiment is classed as cell-based. The following applies: significant only with tethered γ2-MSH. The procedure: as §2
as §1, with “Luciferase activity was normalized using the β-galactosidase activity data. Three independent experiments were performed, each with three technical replicates.” left out
as §3, §4

T1 sequence (Q96LB2 whole entry): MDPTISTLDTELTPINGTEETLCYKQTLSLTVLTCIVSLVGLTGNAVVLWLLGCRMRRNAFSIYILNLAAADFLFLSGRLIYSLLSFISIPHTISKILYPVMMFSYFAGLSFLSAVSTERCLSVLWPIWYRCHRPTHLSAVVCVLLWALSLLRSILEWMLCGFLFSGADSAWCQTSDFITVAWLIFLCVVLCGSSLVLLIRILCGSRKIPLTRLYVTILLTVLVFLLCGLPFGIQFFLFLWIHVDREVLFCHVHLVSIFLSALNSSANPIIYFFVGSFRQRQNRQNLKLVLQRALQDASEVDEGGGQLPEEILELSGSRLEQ
T2 sequence (Q96LB2 whole entry R131S): as the sequence (Q96LB2 whole entry) above, with R131S counted along it
T5 sequence (Q96LB2 whole entry R55L): as the sequence (Q96LB2 whole entry) above, with R55L counted along it
T4 sequence (Q96LB2 whole entry H133R): as the sequence (Q96LB2 whole entry) above, with H133R counted along it
T3 sequence (Q96LB2 whole entry F273L): as the sequence (Q96LB2 whole entry) above, with F273L counted along it

“M15A-Y17W: double substituted BAM8-22 MTL analog, M15A and Y17W (VGRPEWWADWQKRYG; left off: small tags and cut ends; large carriers)”: the “tethered ligand induced receptor activity of substituted BAM8-22 MTL” value with wild type MrgprX1 (MTL construct in HEK293 cells) is “full activity”.

Regarding “bovine adrenal medulla peptide 8-22 (VGRPEWWMDYQKRYG) [BAM8-22, reference compound]”, the “ligand-mediated signaling compared to wild type receptor” value with MrgprX1 R131S variant is given as “lower levels of BAMS-22 mediated activity”. Also, in experiment [1], the “time after administration at which the effect returns to baseline” value is 90 min. For the same substance, the “receptor stimulation at the highest tested concentration” value with wild type MrgprX1 (10 μM, accurate EC50 values could not be calculated) is “does not fully stimulate the receptors”.

With “tethered BAM8-22: cDNA-encoded type I membrane tethered ligand: BAM8-22 fused to a transmembrane domain via a flexible linker, free extracellular N terminus (VGRPEWWMDYQKRYG; also: fused at C-terminus via flexible linker to a transmembrane domain (type I tethered ligand))”, the “ligand-mediated signaling compared to wild type receptor” value is “negligible signaling levels” in the experiment with MrgprX1 R131S variant, “moderate decrease in signaling” with MrgprX1 F273L variant, “not observed” with MrgprX1 H133R variant and “moderate decrease in signaling” in the experiment with MrgprX1 R55L variant. In addition, in the experiment with wild type MrgprX1 (WT receptor, relative to lipidated BAM8-22 at 10^−7 M, mean±SEM, data not shown), the “signaling at saturating concentration, of maximum lipidated BAM8-22 signaling” value stood at 38.4±5.4%. For the same substance, in the experiment with wild type MrgprX1 (co-expressed with MrgprX1 in HEK293, increasing amounts of MTL cDNA, FIG. 3A, 3B), the “MTL activation of the receptor” value was “Active”.
